According to US20050064507:

Assays:
[1] = system: T1, peptide AWVTVHEKKSSRKSEYL (SEQ ID NO:43)
T1 sequence: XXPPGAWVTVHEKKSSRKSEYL

[2] = system: T2, PARIS1 peptide RELEQLKAEYLERRASRRRA (SEQ ID NO:148)
T2 sequence: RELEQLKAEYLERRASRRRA

[3] = system: T3, peptide KKRKKKSSKSLAHA (SEQ ID NO:27)
T3 sequence: XXPPGKKRKKKSSKSLAHA

[4] = system: T4, peptide RKNDRKKRYTVVGNP (SEQ ID NO:29)
T4 sequence: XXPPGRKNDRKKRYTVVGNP

[5] = system: T5, peptide ARIIGEKSFRRSVVG (SEQ ID NO:47)
T5 sequence: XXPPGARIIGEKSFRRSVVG

[6] = system: T6, PRKCA peptide RFARKGSLRQKNV (SEQ ID NO:85)
T6 sequence: RFARKGSLRQKNV

[7] = system: T7, phospholemman peptide EEGTFRSSIRRLSTRRR (SEQ ID NO:116)
T7 sequence: EEGTFRSSIRRLSTRRR

[8] = system: T8, PARIS1 peptide EYLERRASRRRAV (SEQ ID NO:130)
T8 sequence: EYLERRASRRRAV

[9] = system: T9, peptide AINSRETMFHKERFK (SEQ ID NO:67)
T9 sequence: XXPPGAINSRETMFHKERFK

[10] = system: T10, peptide AQIVKRASLKRGKQ (SEQ ID NO:10)
T10 sequence: XXPPGAQIVKRASLKRGKQ

[11] = system: T11, NMDAR1 peptide RAITSTLASSFKRRR (SEQ ID NO:122)
T11 sequence: RAITSTLASSFKRRR

[12] = system: T12, peptide WKGKRRSKARKKRK (SEQ ID NO:13)
T12 sequence: XXPPGWKGKRRSKARKKRK

[13] = system: T13, peptide DLLGKKVSTKTLSEDD (SEQ ID NO:51)
T13 sequence: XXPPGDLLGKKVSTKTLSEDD

[14] = system: T14, peptide RGEGHKPSIAHRDFK (SEQ ID NO:68)
T14 sequence: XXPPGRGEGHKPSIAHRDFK

[15] = system: T15, dag kinase iota peptide PQNSLKASNRKKKRTSFKRK (SEQ ID NO:151)
T15 sequence: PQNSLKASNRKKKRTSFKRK

[16] = system: T16, peptide LTDPKEDPIYDEPEGLAPVPG (SEQ ID NO:72)
T16 sequence: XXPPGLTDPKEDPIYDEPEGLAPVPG

[17] = system: T17, peptide EILSRRPSYRKILND (SEQ ID NO:25)
T17 sequence: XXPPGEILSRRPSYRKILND

[18] = system: T18, peptide IDYYKKTSNGRLPVK (SEQ ID NO:74)
T18 sequence: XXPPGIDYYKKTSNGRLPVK

[19] = system: T19, peptide DGQKRKKSLRKKLD (SEQ ID NO:16)
T19 sequence: XXPPGDGQKRKKSLRKKLD

[20] = system: T20, MARCKS peptide KKKRFSFKKSFKLSGFSFKK (SEQ ID NO:111)
T20 sequence: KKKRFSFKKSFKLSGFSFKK

[21] = system: T21, peptide EYLERRASRRRAV (SEQ ID NO:14)
T21 sequence: XXPPGEYLERRASRRRAV

[22] = system: T22, peptide AARKKRISVKKKQEQ (SEQ ID NO:8)
T22 sequence: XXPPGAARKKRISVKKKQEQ

[23] = system: T23, peptide KLAVGRHSFSRRSGV (SEQ ID NO:21)
T23 sequence: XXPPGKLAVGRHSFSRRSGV

[24] = system: T24, Myt1 kinase peptide PPRTPGWHQLQPRRVSFRGE (SEQ ID NO:163)
T24 sequence: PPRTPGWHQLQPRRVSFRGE

[25] = system: T25, peptide KRPGKKGSNKRPGKR (SEQ ID NO:28)
T25 sequence: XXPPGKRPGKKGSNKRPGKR

[26] = system: T26, peptide DDMEHKTLKITDFG (SEQ ID NO:55)
T26 sequence: XXPPGDDMEHKTLKITDFG

[27] = system: T27, peptide LRRKHLGTLNFGGIR (SEQ ID NO:60)
T27 sequence: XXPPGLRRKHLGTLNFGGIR

[28] = system: T28, peptide RVKLGTLRRPEGP (SEQ ID NO:58)
T28 sequence: XXPPGRVKLGTLRRPEGP

[29] = system: T29, nuclear RNA export factor 3 peptide VRYTPYTISPYNRKGSFRKQ (SEQ ID NO:143)
T29 sequence: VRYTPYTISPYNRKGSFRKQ

[30] = system: T30, peptide HKHSPEKRGSERKEG (SEQ ID NO:52)
T30 sequence: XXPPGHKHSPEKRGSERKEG

[31] = system: T31, peptide NRKKKRTSFKRKA (SEQ ID NO:3)
T31 sequence: XXPPGNRKKKRTSFKRKA

[32] = system: T32, NF1 peptide AGSFKRNSIKKIV (SEQ ID NO:102)
T32 sequence: AGSFKRNSIKKIV

[33] = system: T33, peptide ALRAPKPTLRYFTTERF (SEQ ID NO:64)
T33 sequence: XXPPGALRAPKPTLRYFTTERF

[34] = system: T34, peptide LLGSGKVTDRKAL (SEQ ID NO:39)
T34 sequence: XXPPGLLGSGKVTDRKAL

[35] = system: T35, peptide FVHQASFKFGQGD (SEQ ID NO:41)
T35 sequence: XXPPGFVHQASFKFGQGD

[36] = system: T36, NCF1 peptide GAPPRRSSIRNAH (SEQ ID NO:101)
T36 sequence: GAPPRRSSIRNAH

[37] = system: T37, dag kinase zeta peptide KKKKRASFKRKSSKKG (SEQ ID NO:114)
T37 sequence: KKKKRASFKRKSSKKG

[38] = system: T38, peptide ENLRKVTTDKKSLAY (SEQ ID NO:54)
T38 sequence: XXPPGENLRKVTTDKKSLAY

[39] = system: T39, peptide GQAWGRQSPRRLED (SEQ ID NO:46)
T39 sequence: XXPPGGQAWGRQSPRRLED

[40] = system: T40, peptide EGGDRRASGRRK (SEQ ID NO:34)
T40 sequence: XXPPGEGGDRRASGRRK

[41] = system: T41, beta adducin peptide PSKSPSKKKKKFRTPSFLKK (SEQ ID NO:137)
T41 sequence: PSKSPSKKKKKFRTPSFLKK

[42] = system: T42, peptide AVNSRRRAGQKKK (SEQ ID NO:48)
T42 sequence: XXPPGAVNSRRRAGQKKK

[43] = system: T43, peptide VDNILKKSNKKLEEL (SEQ ID NO:61)
T43 sequence: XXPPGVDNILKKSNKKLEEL

Substance: PKC-delta
- in vitro phosphorylation (% of best substrate) [1]: 3
- in vitro phosphorylation, 1 uM peptide (% of best substrate) [2]: 27
- in vitro phosphorylation, 10 uM peptide (% of best substrate) [2]: 14
- in vitro phosphorylation (% of best substrate) [3]: 8
- in vitro phosphorylation (% of best substrate) [4]: 8
- in vitro phosphorylation (% of best substrate) [5]: 2
- in vitro phosphorylation (% of best substrate) [6]: 34
- in vitro phosphorylation, 1 uM peptide (% of best substrate) [7]: 75
- in vitro phosphorylation, 10 uM peptide (% of best substrate) [7]: 41
- in vitro phosphorylation, 1 uM peptide (% of best substrate) [8]: 46
- in vitro phosphorylation, 10 uM peptide (% of best substrate) [8]: 20
- in vitro phosphorylation (% of best substrate) [9]: 1
- in vitro phosphorylation (% of best substrate) [10]: 32
- in vitro phosphorylation, 1 uM peptide (% of best substrate) [11]: 55
- in vitro phosphorylation, 10 uM peptide (% of best substrate) [11]: 24
- in vitro phosphorylation (% of best substrate) [12]: 22
- in vitro phosphorylation (% of best substrate) [13]: 2
- in vitro phosphorylation (% of best substrate) [14]: 1
- in vitro phosphorylation, 1 uM peptide (% of best substrate) [15]: 27
- in vitro phosphorylation, 10 uM peptide (% of best substrate) [15]: 37
- in vitro phosphorylation (% of best substrate) [16]: 0
- in vitro phosphorylation (% of best substrate) [17]: 9
- in vitro phosphorylation (% of best substrate) [18]: 0
- in vitro phosphorylation (% of best substrate) [19]: 17
- in vitro phosphorylation (% of best substrate) [20]: 16
- in vitro phosphorylation (% of best substrate) [21]: 20
- in vitro phosphorylation (% of best substrate) [22]: 35
- in vitro phosphorylation (% of best substrate) [23]: 12
- in vitro phosphorylation, 1 uM peptide (% of best substrate) [24]: 13
- in vitro phosphorylation, 10 uM peptide (% of best substrate) [24]: 21
- in vitro phosphorylation (% of best substrate) [25]: 8
- in vitro phosphorylation (% of best substrate) [26]: 2
- in vitro phosphorylation (% of best substrate) [27]: 1
- in vitro phosphorylation (% of best substrate) [28]: 1
- in vitro phosphorylation, 1 uM peptide (% of best substrate) [29]: 33
- in vitro phosphorylation, 10 uM peptide (% of best substrate) [29]: 32
- in vitro phosphorylation (% of best substrate) [30]: 2
- in vitro phosphorylation (% of best substrate) [31]: 66
- in vitro phosphorylation (% of best substrate) [32]: 14
- in vitro phosphorylation (% of best substrate) [33]: 1
- in vitro phosphorylation (% of best substrate) [34]: 3
- in vitro phosphorylation (% of best substrate) [35]: 3
- in vitro phosphorylation (% of best substrate) [36]: 13
- in vitro phosphorylation, 1 uM peptide (% of best substrate) [37]: 80
- in vitro phosphorylation, 10 uM peptide (% of best substrate) [37]: 100
- in vitro phosphorylation (% of best substrate) [38]: 2
- in vitro phosphorylation (% of best substrate) [39]: 2
- in vitro phosphorylation (% of best substrate) [40]: 5
- in vitro phosphorylation, 1 uM peptide (% of best substrate) [41]: 38
- in vitro phosphorylation, 10 uM peptide (% of best substrate) [41]: 16
- in vitro phosphorylation (% of best substrate) [42]: 2
- in vitro phosphorylation (% of best substrate) [43]: 1
